Source: PMC4686757

B1: canonical symmetrical E2F site GCGCGCC (dsDNA)
DNA 1: CTTTTGCGCGCCAAAG
DNA 2: CTTTGGCGCGCAAAAG
B2: E2F8 SELEX-preferred site GGCGGG (dsDNA)
DNA 1: TTTTTGGCGGGAAAA
DNA 2: TTTTCCCGCCAAAAA

Assays:
E2F8 DBD1-DBD2 [1] = target: T1, E2F8 DBD1-DBD2 (human, UniProt A0AVK6 110-350); experiment: ITC; no binding detected under same conditions, 20 C; ITC: 20 mM HEPES pH 7.5, 150 mM NaCl, 5% glycerol, TCEP (printed 0.5 M), 20 C; 0.1 mM protein into 0.012-0.016 mM DNA
E2F8 DBD1-DBD2 [2] = target: T1, E2F8 DBD1-DBD2; experiment: ITC; 20 C; ITC: 20 mM HEPES pH 7.5, 150 mM NaCl, 5% glycerol, TCEP (printed 0.5 M), 20 C; 0.1 mM protein into 0.012-0.016 mM DNA

T1 sequence (A0AVK6 110-350): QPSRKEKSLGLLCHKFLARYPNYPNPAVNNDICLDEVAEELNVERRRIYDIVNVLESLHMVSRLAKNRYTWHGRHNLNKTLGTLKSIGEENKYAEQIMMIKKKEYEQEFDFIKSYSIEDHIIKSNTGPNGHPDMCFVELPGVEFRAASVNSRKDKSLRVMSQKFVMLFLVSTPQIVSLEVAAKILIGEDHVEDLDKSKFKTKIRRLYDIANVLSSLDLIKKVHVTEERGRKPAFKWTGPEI

Binder	binding result (E2F8 DBD1-DBD2 [1])	Kd (E2F8 DBD1-DBD2 [2])
B1	no binding	–
B2	–	~260 nM
